The values below come from paper PMC5871715.

Like-named read-outs stand apart in the source and are kept apart here.

The target of assay [1] is Netrin-1 (Homo sapiens) (UniProt O95631). Particulars: cited from earlier work.
Assay [2] shares this target. Particulars: cited from earlier work. The source holds these as a separate data set.
The target of assay [3] is full-length wild-type rat DCC on the cell surface (UniProt Q63155). The assay can be described thus: cell-binding assay. To be noted: n = 100 for each group; parent: est. 49; read off a plot.
full-length wild-type rat DCC on the cell surface, sequence (Q63155 26-1445): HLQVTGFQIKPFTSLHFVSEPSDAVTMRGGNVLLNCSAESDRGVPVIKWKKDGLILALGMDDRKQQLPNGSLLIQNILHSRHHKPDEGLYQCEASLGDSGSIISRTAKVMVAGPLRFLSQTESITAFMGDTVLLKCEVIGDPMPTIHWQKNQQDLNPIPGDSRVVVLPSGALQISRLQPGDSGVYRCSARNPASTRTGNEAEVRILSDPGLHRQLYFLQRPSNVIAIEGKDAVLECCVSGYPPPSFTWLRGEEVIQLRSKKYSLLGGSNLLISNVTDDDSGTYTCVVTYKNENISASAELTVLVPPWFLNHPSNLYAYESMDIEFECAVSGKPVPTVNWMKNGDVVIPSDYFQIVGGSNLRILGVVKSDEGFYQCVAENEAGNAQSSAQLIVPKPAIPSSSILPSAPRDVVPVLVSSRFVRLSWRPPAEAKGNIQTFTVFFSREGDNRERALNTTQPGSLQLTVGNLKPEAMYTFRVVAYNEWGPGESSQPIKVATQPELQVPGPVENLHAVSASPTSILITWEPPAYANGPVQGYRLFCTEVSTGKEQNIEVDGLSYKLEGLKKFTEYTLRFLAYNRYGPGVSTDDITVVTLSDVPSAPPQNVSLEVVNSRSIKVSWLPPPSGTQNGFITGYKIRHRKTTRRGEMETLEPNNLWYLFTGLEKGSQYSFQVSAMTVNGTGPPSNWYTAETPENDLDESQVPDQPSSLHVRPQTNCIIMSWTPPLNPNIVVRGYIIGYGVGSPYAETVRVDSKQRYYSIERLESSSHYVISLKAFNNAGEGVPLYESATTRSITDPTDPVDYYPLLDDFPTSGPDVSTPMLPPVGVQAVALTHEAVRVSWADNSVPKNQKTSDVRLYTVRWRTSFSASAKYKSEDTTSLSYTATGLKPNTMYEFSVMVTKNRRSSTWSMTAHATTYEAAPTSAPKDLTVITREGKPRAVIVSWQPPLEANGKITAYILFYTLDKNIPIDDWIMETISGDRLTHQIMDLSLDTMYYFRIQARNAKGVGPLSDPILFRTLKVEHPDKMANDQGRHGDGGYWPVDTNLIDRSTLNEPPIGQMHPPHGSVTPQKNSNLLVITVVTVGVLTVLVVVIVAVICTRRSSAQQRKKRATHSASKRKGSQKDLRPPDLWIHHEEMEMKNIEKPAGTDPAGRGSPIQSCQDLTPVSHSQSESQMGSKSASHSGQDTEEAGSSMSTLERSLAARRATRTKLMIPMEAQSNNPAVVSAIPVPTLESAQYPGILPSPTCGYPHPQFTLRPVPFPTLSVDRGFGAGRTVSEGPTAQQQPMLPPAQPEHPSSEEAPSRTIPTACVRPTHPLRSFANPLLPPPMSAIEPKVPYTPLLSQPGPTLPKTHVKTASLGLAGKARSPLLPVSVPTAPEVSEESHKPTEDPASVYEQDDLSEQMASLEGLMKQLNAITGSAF

DCC Fn5, sequence (P43146 846-942): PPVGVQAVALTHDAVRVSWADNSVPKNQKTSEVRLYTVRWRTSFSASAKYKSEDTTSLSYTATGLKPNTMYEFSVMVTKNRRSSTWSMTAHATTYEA

Consider DCC Fn5 (from UniProt P43146), for which, in the assay with Netrin-1 (Homo sapiens) [1], the Kd was 5000 nM.
Take Draxin (from UniProt Q8NBI3): the Kd with Netrin-1 (Homo sapiens) [2] is 10 nM.
Take wild-type rDraxin-Flag R282A: the response (% positive binding) in assay [3] worked out at 59.
As to wild-type rDraxin-Flag R282D, in assay [3], the response (% positive binding) stood at 6.
Turning to wild-type rDraxin-Flag R322A, the response (% positive binding) in assay [3] was 3.
Consider wild-type rDraxin-Flag R322D, for which, in assay [3], the response (% positive binding) was found to be 10.

One may read the Kd as the constant that tells how readily two partners part at equilibrium.
